Assay results reported in patent US20030049644.

Biological target: Hepatocyte growth factor/scatter factor (HGF) (UniProt P14210+P14210)
Test: FP
Settings: 2'-F pyrimidines

Chain of Hepatocyte growth factor/scatter factor (HGF) (P14210 32-494, chain 1 of 2): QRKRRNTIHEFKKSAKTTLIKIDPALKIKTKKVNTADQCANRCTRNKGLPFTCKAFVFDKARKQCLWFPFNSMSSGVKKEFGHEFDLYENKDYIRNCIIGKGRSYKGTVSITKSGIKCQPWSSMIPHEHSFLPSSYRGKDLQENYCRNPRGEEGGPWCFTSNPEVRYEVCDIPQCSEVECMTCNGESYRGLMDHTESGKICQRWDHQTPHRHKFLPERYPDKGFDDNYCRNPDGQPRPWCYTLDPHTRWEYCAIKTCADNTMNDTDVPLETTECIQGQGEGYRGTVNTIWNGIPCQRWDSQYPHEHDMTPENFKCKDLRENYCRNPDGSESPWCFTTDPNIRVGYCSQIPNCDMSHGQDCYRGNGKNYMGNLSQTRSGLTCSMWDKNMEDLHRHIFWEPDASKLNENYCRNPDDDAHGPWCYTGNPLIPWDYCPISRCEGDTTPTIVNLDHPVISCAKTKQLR
Chain of Hepatocyte growth factor/scatter factor (HGF) (P14210 495-728, chain 2 of 2): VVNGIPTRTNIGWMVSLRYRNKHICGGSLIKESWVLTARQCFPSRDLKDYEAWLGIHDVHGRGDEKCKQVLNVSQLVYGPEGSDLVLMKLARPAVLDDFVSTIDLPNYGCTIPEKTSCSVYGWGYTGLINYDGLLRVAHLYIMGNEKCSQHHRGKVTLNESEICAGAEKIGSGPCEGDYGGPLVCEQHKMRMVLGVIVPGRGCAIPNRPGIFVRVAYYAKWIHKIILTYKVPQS

## GAGAGNUCCUAUUUAUGACAUCCCAUGCCCCCA [Tr65]
  Kd: 1.4 nM
